Measured values taken from patent US20190177418A1.

Key:
[1] = target: human TrkB (tropomyosin receptor kinase B) expressed on CHO reporter cells (human) (UniProt Q16620); assay: cell-based or functional assay
[2] = target: mouse TrkB, endogenous on mouse cortical neurons and mouse embryonic stem cell line (mouse) (UniProt P15209); assay: cell-based or functional assay
UniProt P15209, sequence (P15209 32-821): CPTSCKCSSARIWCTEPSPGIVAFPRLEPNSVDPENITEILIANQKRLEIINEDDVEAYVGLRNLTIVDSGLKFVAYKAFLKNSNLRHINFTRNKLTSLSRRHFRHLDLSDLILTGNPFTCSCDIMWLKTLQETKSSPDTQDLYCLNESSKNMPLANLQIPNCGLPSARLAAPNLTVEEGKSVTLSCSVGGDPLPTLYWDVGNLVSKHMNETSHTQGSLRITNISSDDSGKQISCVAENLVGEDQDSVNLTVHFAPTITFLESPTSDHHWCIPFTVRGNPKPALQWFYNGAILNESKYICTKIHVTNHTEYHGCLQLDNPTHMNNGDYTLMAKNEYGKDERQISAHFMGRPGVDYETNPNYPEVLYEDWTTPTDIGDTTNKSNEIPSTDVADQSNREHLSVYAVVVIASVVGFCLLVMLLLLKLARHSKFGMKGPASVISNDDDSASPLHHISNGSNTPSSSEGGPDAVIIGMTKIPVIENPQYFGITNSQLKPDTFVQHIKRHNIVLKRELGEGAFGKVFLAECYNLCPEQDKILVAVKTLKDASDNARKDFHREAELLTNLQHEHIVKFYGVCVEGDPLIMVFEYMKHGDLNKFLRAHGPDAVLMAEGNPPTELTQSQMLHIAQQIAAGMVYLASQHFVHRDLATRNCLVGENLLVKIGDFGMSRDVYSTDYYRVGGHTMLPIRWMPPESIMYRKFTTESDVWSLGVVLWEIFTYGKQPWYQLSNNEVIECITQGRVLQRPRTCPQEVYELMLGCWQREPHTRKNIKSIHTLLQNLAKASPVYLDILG

UniProt Q16620, sequence (Q16620 32-822): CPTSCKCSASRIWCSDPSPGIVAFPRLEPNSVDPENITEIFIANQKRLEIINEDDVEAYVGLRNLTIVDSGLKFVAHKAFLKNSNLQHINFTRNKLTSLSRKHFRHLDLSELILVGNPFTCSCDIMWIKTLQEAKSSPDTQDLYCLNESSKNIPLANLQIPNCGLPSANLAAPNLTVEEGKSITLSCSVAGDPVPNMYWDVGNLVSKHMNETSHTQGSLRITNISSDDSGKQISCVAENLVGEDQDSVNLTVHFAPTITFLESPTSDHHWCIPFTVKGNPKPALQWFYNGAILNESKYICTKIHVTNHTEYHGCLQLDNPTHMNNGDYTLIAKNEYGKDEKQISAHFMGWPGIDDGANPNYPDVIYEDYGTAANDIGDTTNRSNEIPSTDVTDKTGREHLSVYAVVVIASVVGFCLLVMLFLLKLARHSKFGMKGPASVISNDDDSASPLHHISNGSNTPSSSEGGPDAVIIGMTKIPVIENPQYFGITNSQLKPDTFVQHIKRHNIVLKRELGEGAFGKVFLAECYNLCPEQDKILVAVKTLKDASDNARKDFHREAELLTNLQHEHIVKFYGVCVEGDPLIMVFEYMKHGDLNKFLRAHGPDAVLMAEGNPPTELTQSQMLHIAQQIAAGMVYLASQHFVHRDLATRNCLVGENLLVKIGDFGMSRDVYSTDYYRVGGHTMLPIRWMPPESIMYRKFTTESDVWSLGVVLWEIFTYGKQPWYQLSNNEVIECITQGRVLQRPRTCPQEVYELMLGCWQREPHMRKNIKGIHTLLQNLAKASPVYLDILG

signaling in human TrkB reporter cell [1]: 2 nM | TrkB phosphorylation in mouse embryonic stem cell line [2]: 2 nM
Substance: brain derived neurotrophic factor (BDNF) (from UniProt P23560 129-247) (ligand)
